The test system of assay [1] is EphA2 on non-transformed MCF-10A cells. Put plainly: Flow cytometry of EA2 binding, non-transformed cells with or without EGTA. The assay is classed as cell-based. The settings on record: 10 μg/ml EA2; 4 mM EGTA 10-15 minutes on ice. Here is the method:
(§1) (A, B) Non-transformed MCF-10A cells were labeled with EA2 at 4° C. either before (A) or after (B) treatment with EGTA and prior to fixation and immunolabeling with fluorophore-conjugated anti-mouse IgG. (C, D) Non-transformed MCF-10A (C) or transformed MDA-MB-231 (D) cells were labeled with EA2 either before (middle) or after (top) treatment with EGTA. Control cells were incubated with secondary antibody alone (bottom). The amount of EA2-EphA2 binding was measured using flow cytometry.
(§2) An equivalent experiment was performed using MCF-10A or MDA-MB-231 cells. The amount of EA2 binding to EphA2 was measured using flow cytometry (FIGS. 17C-17D). Cells were either treated by incubation in 4 mM EGTA for 10-15 minutes on ice (top panel) or were not treated with EGTA (middle panel) before incubation with 10 μg/ml EA2. Cells were then fixed with 3% formalin and labeled with fluorophore-labeled donkey anti-mouse IgG. Control cells were incubated only with secondary antibody (fluorophore-labeled donkey anti-mouse IgG) in the absence of primary antibody (EA2) (bottom panel). The samples were then evaluated using flow cytometry (Becton Dickinson FACStar Plus).
On the technique in general: A flow cytometer gives signals particle by particle.

In another assay the target is EphA2 (Homo sapiens, UniProt P29317). Put plainly: EphA2 expression level in MCF-7^EphA2 cells after EA2 (western blot). The settings on record: 3 μg/ml EA2. The assay is classed as cell-based. The method, then:
FIGS. 13A-13C: EphA2 agonistic antibody EA2 decreases malignant growth. MCF-7^EPhA2 cells were incubated in the presence of 3 μg/ml of EA2 for the time indicated prior to sample extraction and western blot analyses with an EphA2-specific antibody (D7). (B) The membrane was stripped and re-probed with a β-catenin-specific antibody as a loading control. (C) 1×10^5 control or MCF-7^EphA2 cells were suspended in soft agar in the presence or absence of tamoxifen (TAM, 1 μM) and EphA2 agonistic antibody (EA2, 10 μg/ml).
Growth MCF-7^EphA2 cells which had decreased EphA2 expression levels was assayed in soft agar. The EphA2 monoclonal antibody EA2 induced EphA2 activation and subsequent degradation. […] Whereas EA2 decreased soft agar colonization (by 19%), the combination of EA2 and tamoxifen caused a much more dramatic (>80%) decrease in soft agar colonization.
(In general: A western blot detects proteins with antibodies after separation by electrophoresis.)

In a further assay the test system is control MCF-7 cells. Briefly: Soft agar colonization of control MCF-7 cells. The settings on record: EA2 10 μg/ml, tamoxifen 1 μM. The assay is classed as cell-based. The method, then: FIGS. 11A-11B: EphA2 overexpression decreases tamoxifen sensitivity. (A) 1×10^5 MCF-7 or MCF-7^EphA2 cells were suspended in soft agar in the presence of 1 μM tamoxifen (TAM) and or 1 μM 17β-estradiol and colony formation was evaluated microscopically after 14 days. (B) MCF-7 (circles) or MCF-7^EphA2 cells (squares) were implanted into the mammary fatpad (n=15 mice per group) in the presence of supplemental estrogen. Tamoxifen treatment was initiated 17 days post-implantation. Tumor volume of tamoxifen treated (black circles and squares) and saline treated (white circles and squares) animals was measured at the indicated time.
FIGS. 13A-13C: EphA2 agonistic antibody EA2 decreases malignant growth. MCF-7^EPhA2 cells were incubated in the presence of 3 μg/ml of EA2 for the time indicated prior to sample extraction and western blot analyses with an EphA2-specific antibody (D7). […]
EphA2 overexpression increased malignant growth (FIGS. 8A-8B). […] Colony formation in soft agar was performed as previously described (Zelinski et al., 2001, Cancer Res. 61:2301-6) and scored microscopically, defining clusters of at least three cells as a positive. […] Error bars represent the standard error of the mean of at least three different experiments as determined using Microsoft Excel software.
Sensitivity of MCF-7^EphA2 cells to tamoxifen was measured. […]

Assay [2] has as its target T1, EphA2-Ephrin A1-Fc-EA2 complex (Homo sapiens, UniProt P29317).
T1 construct: consisting of the extracellular domain of EphA2 linked to human IgG1 constant region
Briefly: Displacement of labeled EA2 from EphA2-Ephrin A1-Fc complex by unlabeled competitor. The assay is classed as binding. The conditions noted are these: biotinylated EA2 10 μg/ml, 30 min. The method, then: FIGS. 18A-18B: EphA2 EA2 epitope is distinct from Eph099B-233.152 epitope and ligand binding site. (A) EphA2-Fc was incubated with and bound to immobilized Ephrin A1-Fc. Labeled Ephrin A1-Fc (black), EA2 (white) or Eph099B-233.152 (grey) was incubated with the EphA2-Ephrin A1-Fc complex and amount of binding was measured. (B) EphA2-Fc was incubated with and bound to immobilized Ephrin A1-Fc. Labeled EA2 was then incubated with the EphA2-Ephrin A1 complex. Unlabeled competitor was incubated with EphA2-Ephrin A1-EA2 complex in the indicated amount. Competitors were Ephrin A1-Fc (black), EA2 (white) or Eph099B-233.152 (grey).
The EphA2-Ephrin A1-Fc complex was prepared as described above. Biotinylated EA2 (10 μg/ml) was then incubated with the complex for 30 min. Unlabeled competitor was incubated with EphA2-Ephrin A1-Fc-EA2 complex in the indicated amount. Unlabeled EA2 could displace the labeled EA2 at concentrations of 100 ng/ml or greater.

Assay [3] concerns EphA2 on transformed MDA-MB-231 cells. Put plainly: Flow cytometry of EA2 binding, transformed cells with or without EGTA. Type of assay: cell-based. The conditions noted are these: 10 μg/ml EA2; 4 mM EGTA 10-15 minutes on ice. The method, then:
as §1, §2

EphA2, sequence (P29317 24-976): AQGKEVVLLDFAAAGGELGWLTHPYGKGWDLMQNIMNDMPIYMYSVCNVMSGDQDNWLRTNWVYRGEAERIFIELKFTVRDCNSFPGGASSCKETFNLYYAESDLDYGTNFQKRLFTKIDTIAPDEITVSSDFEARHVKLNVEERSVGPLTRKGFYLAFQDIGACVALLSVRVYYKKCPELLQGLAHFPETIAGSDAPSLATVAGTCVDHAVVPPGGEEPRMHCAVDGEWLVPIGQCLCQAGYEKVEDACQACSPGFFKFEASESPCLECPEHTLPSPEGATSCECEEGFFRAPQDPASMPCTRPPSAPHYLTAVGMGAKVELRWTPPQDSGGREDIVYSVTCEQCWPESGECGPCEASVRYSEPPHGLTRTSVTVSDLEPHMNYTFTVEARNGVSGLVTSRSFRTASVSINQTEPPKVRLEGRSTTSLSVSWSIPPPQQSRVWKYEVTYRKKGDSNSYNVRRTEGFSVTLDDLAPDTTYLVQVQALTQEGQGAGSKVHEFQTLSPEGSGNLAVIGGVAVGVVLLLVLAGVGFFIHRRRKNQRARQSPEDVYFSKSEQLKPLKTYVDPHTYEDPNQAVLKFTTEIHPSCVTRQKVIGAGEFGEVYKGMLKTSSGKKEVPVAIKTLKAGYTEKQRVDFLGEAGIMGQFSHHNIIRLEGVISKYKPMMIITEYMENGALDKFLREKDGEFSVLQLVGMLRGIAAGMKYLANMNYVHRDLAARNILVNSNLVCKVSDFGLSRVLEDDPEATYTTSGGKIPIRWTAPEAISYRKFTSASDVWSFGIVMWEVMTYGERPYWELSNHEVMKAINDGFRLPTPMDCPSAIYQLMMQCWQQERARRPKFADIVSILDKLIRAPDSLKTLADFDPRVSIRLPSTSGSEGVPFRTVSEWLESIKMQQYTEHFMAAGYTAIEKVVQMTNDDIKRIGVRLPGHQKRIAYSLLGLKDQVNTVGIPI
T1 sequence (P29317 24-537 limits assumed): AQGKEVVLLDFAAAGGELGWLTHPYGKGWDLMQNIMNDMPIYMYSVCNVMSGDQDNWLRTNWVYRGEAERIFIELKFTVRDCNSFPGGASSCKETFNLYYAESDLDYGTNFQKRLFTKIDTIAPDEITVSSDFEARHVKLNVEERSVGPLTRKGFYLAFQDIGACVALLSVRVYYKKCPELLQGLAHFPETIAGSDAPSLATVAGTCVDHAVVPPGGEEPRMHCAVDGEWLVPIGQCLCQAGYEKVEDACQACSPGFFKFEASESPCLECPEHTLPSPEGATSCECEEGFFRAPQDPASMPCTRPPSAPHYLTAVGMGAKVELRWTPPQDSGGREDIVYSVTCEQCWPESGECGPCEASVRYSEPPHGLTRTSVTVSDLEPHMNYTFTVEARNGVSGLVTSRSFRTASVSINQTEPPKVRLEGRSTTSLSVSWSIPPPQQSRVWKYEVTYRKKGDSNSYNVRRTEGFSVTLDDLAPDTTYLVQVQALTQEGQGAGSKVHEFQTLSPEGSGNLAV
T1 sequence (P20827 19-182 partner limits assumed): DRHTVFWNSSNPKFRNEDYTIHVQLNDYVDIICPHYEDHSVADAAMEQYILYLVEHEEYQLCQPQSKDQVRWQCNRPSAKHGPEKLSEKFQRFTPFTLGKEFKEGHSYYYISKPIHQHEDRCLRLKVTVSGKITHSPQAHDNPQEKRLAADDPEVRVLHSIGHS

B1: EA2: EphA2 agonistic monoclonal antibody; ATCC deposit no. PTA-4380; co-pending application Ser. No. 10/436,783; VL SEQ ID NO:33, VH SEQ ID NO:37 (antibody, listed as Homo Sapiens, V domains shown)
VH: DVKLVESGGGLVKPGGSLKLSCAASGFTFSSYTMSWVRQTPEKRLEWVATISSGGTYTYYPDSVKGRFTISRDNAKNTLYLQMSSLKSEDTAMYYCTREAIFTYWGQGTLVTVSA
VL: DIKMTQSPSSMYASLGERVTITCKASQDINNYLSWFQQKPGKSPKTLIYRANRLVDGVPSRFSGSGSGQDYSLTISSLEYEDMGIYYCLKYDEFPYTFGGGTKLEIK
As for B1, in assay [1], the “Effect of EGTA treatment on EA2 binding, non-transformed cells” value is reported as “increased by incubation in EGTA”. Further, in the assay with EphA2, the EphA2 expression level result is “Decreased levels of EphA2 expression were observed within two hours” and the “Time EphA2 remained undetectable” value is no less than 24 h. Also, the “Effect of EA2 on tamoxifen response of control MCF-7 cells in soft agar” value in the assay on control MCF-7 cells was “did not further alter this response”. Besides, the “Concentration of unlabeled competitor displacing labeled EA2” value in assay [2] was no less than 100 ng/mL. Further, the “Effect of EGTA treatment on EA2 binding, transformed cells” value in assay [3] was “did not affect”.

These data come from patent US20100278838A1, “EPHA2 MONOCLONAL ANTIBODIES AND METHODS OF USE THEREOF” (MEDIMMUNE, LLC, priority 2002, published 2010).
